Measurements reported in patent US20240294926.

Tested on: PARP (endogenous, MDA-MB-231 cells) (Homo sapiens)
Assay: cell_activity
Settings: cholesterol-conjugated, HEG loop, 5 uM, 48 h

Row | Sequence | activity (% PARylated cells) (3 PS linkages on each strand, PARP activation weaker than OX413) | activity (% PARylated cells) (FANA (2'-deoxy-2'-fluoroarabino) nucleotides and PS linkages (positions only in images), PARP activation)
1 | CCCAGCAAACAAGCCT (double strand) [OX401] | 20 | 
2 | CCCAGCAAACAAGCCT (double strand) [OX413] |  | > 40
